The values that follow come from patent US20230346885A1 (published 2023).

Holding throughout (assay): binding, other
One assay deals with T1, RLN1 peptide on HLA (human).
T1 peptide: ALSERQPSL

In a further assay the target is T2, XAGE1 peptide on HLA (human).
T2 peptide: KMPEAGEEQPQV

Another assay deals with T3, PAEP peptide on HLA (human).
T3 peptide: TLLDTDYDNFL

The target in another assay is T4, SLC45A2 peptide on HLA (human).
T4 peptide: YVTPVLLSV

Assay [1] concerns the target T5, PIWIL1 peptide on HLA (human).
T5 peptide: SIAGFVASI

Another assay concerns the target T6, SMC1B peptide on HLA (human).
T6 peptide: ALDNTNIGKV

Assay [2] has as its target T7, PIWIL1 peptide on HLA (human).
T7 peptide: SLIQNLFKV

Assay [3] deals with T8, PIWIL1 peptide on HLA (human).
T8 peptide: SLSNRLYYL

Changes are numbered by the printed parent chain.

B1: TCR of SEQ ID NOs 523 and 524 (TCR, V domains shown)
Valpha: QKEVEQNSGPLSVPEGAIASLNCTYSDRGSQSFFWYRQYSGKSPELIMSIYSNGDKEDGRFTAQLNKASQYVSLLIRDSQPSDSATYLCAVNAGGTSYGKLTFGQGTILTVHP
Vbeta: NAGVTQTPKFRVLKTGQSMTLQCAQDMNHNSMYWYRQDPGMGLRLIYYSASEGTTDKGEVPNGYNVSRLNKREFSLRLESAAPSQTSVYFCASSEIDVWYNSPLHFGNGTRLTVT
As for B1, the binding result with RLN1 peptide on HLA is given as “recognises”.

B2: TCR of SEQ ID NOs 611 and 612 (TCR, V domains shown)
Valpha: KQEVTQIPAALSVPEGENLVLNCSFTDSAIYNLQWFRQDPGKGLTSLLLIQSSQREQTSGRLNASLDKSSGRSTLYIAASQPGDSATYLCAVRPRGDSSYKLIFGSGTRLLVRP
Vbeta: DGGITQSPKYLFRKEGQNVTLSCEQNLNHDAMYWYRQDPGQGLRLIYYSQIVNDFQKGDIAEGYSVSREKKESFPLTVTSAQKNPTAFYLCASSASGSIYNEQFFGPGTRLTVL
As for B2, the binding result with XAGE1 peptide on HLA is reported as “recognises”.

B3: TCR of SEQ ID NOs 483 and 484 (TCR, V domains shown)
Valpha: ELKVEQNPLFLSMQEGKNYTIYCNYSTTSDRLYWYRQDPGKSLESLFVLLSNGAVKQEGRLMASLDTKARLSTLHITAAVHDLSATYFCAVGAYSGAGSYQLTFGKGTKLSVIP
Vbeta: NAGVIQNPRHLVRRRGQEARLRCSPMKGHSHVYWYRQLPEEGLKFMVYLQKENIIDESGMPKERFSAEFPKEGPSILRIQQVVRGDSAAYFCASSKYPAGEANEKLFFGSGTQLSVL
On to B3, for which the binding result in the assay with PAEP peptide on HLA was “recognises”.

B4: TCR of SEQ ID NOs 575 and 576 (TCR, V domains shown)
Valpha: KQEVTQIPAALSVPEGENLVLNCSFTDSAIYNLQWFRQDPGKGLTSLLLIQSSQREQTSGRLNASLDKSSGRSTLYIAASQPGDSATYLCAALSYNTDKLIFGTGTRLQVFP
Vbeta: NAGVTQTPKFQVLKTGQSMTLQCAQDMNHNSMYWYRQDPGMGLRLIYYSASEGTTDKGEVPNGYNVSRLNKREFSLRLESAAPSQTSVYFCASSEAYLAAFFGQGTRLTVV
Turning to B4, in the assay with SLC45A2 peptide on HLA, the binding result was “recognises”.

B5: TCR of SEQ ID NOs 513 and 514 (TCR, V domains shown)
Valpha: KQEVTQIPAALSVPEGENLVLNCSFTDSAIYNLQWFRQDPGKGLTSLLLIQSSQREQTSGRLNASLDKSSGRSTLYIAASQPGDSATYLCAVGGYNKLIFGAGTRLAVHP
Vbeta: NAGVTQTPKFRVLKTGQSMTLLCAQDMNHEYMYWYRQDPGMGLRLIHYSVGAGITDQGEVPNGYNVSRSTTEDFPLRLLSAAPSQTSVYFCASRATGLTEAFFGQGTRLTVV
Turning to B5, the binding result with PIWIL1 peptide on HLA [1] is on record as “recognises”.

B6: TCR of SEQ ID NOs 581 and 582 (TCR, V domains shown)
Valpha: B5 Valpha with G93F, G94N, Y95D, N96Y, I99S, R105T, L106V, A107T, H109R, P110A
Vbeta: NAGVTQTPKFQVLKTGQSMTLQCAQDMNHEYMSWYRQDPGMGLRLIHYSVGAGITDQGEVPNGYNVSRLNKREFSLRLESAAPSQTSVYFCASSEWFDTEAFFGQGTRLTVV
On to B6, for which, in the assay with SMC1B peptide on HLA, the binding result is recorded as “recognises”.

B7: TCR of SEQ ID NOs 503 and 504 (TCR, V domains shown)
Valpha: QKEVEQNSGPLSVPEGAIASLNCTYSDRGSQSFFWYRQYSGKSPELIMFIYSNGDKEDGRFTAQLNKASQYVSLLIRDSQPSDSATYLCAVMGNTDKLIFGTGTRLQVFP
Vbeta: NAGVTQTPKFQVLKTGQSMTLQCAQDMNHEYMSWYRQDPGMGLRLIHYSVGAGITDQGEVPNGYNVSRSTTEDFPLRLLSAAPSQTSVYFCASSYGVGSPLHFGNGTRLTVT
In the case of B7, the binding result with PIWIL1 peptide on HLA [2] was “recognises”.

B8: TCR of SEQ ID NOs 507 and 508 (TCR, V domains shown)
Valpha: B7 Valpha with M92K, G93T, N94S, T95Y, L98V, T102P, R105S, Q107S, F109I
Vbeta: B7 Vbeta with V97A, S99A, P100F, L101Y, H102T, N105S, T112V
As to B8, the binding result in the assay with PIWIL1 peptide on HLA [2] is “recognises”.

B9: TCR of SEQ ID NOs 511 and 512 (TCR, V domains shown)
Valpha: KQEVTQIPVALSVPEGENLVLNCSFTDSAIYNLQWFRQDPGKGLTSLLLIQSSQREQTSGRLNASLDKSSGRSTLYIAASQPGDSATYLCAVSPYNNNDMRFGAGTRLTVKP
Vbeta: B7 Vbeta with Q22L, S33Y, A52E, I54T, Q57K, Y95F, G96T, V97G, G98D
For the molecule B9, in the assay with PIWIL1 peptide on HLA [1], the binding result is recorded as “recognises”.

B10: TCR of SEQ ID NOs 525 and 526 (TCR, V domains shown)
Valpha: QKEVEQNSGPLSVPEGAIASLNCTYSDRGSQSFFWYRQYSGKSPELIMFIYSNGDKEDGRFTAQLNKASQYVSLLIRDSQPSDSATYLCAVGGYQKVTFGTGTKLQVIP
Vbeta: NAGVTQTPKFGILKIGQSMTLQCAQDMNHNYMYWYRQDPGMGLKLIYYSVGAGITDKGEVPNGYNVSRSTTEDFPLRLELAAPSQTSVYFCASRVDSYNEQFFGPGTRLTVL
Take B10: the binding result in the assay with RLN1 peptide on HLA was “recognises”.

B11: TCR of SEQ ID NOs 497 and 498 (TCR, V domains shown)
Valpha: KQEVTQIPAALSVPEGENLVLNCSFTDSAIYNLQWFRQDPGKGLTSLLLIQSSQREQTSGRLNASLDKSSGRSTLYIAASQPGDSATYLCAARYNFNKFYFGSGTKLNVKP
Vbeta: NAGVTQTPKFQVLKTGQSMTLLCAQDMNHEYMYWYRQDPGMGLRLIHYSVGEGTTAKGEVPDGYNVSRSTTEDFPLRLLSAAPSQTSVYFCASSYTPGPSHEQYFGPGTRLTVT
On to B11, for which the binding result in the assay with PIWIL1 peptide on HLA [3] is reported as “recognises”.

B12: TCR of SEQ ID NOs 499 and 500 (TCR, V domains shown)
Valpha: KQEVTQIPAALSVPEGENLVLNCSFTDSAIYNLQWFRQDPGKGLTSLLLIQSSQREQTSGRLNASLDKSSGRSTLYIAASQPGDSATYLCAVIDRAYSGAGSYQLTFGKGTKLSVIP
Vbeta: NAGVTQTPKFRILKIGQSMTLQCTQDMNHNYMYWYRQDPGMGLKLIHYSVGAGITDQGEVPNGYNVSRSTTEDFPLRLLSAAPSQTSVYFCASSLGVSYNEQFFGPGTRLTVL
As for B12, the binding result in the assay with PIWIL1 peptide on HLA [3] is on record as “recognises”.

B13: TCR of SEQ ID NOs 585 and 586 (TCR, V domains shown)
Valpha: KQEVTQIPAALSVPEGENLVLNCSFTDSAIYNLQWFRQDPGKGLTSLLLIQSSQREQTSGRLNASLDKSSGRSTLYIAASQPGDSATYLCAVRGAGGTSYGKLTFGQGTILTVHP
Vbeta: NAGVTQTPKFQVLKTGQSMTLQCAQDMNHNSMYWYRQDPGMGLRLIYYSASEGTTDKGEVPNGYNVSRLNKREFSLRLESAAPSQTSVYFCASSDESYGYYGYTFGSGTRLTVV
As for B13, the binding result with SMC1B peptide on HLA is on record as “recognises”.
